Data reported in article PMC11535055, “ER-phagy restrains inflammatory responses through its receptor UBAC2” (The EMBO Journal, 2024).
Numbering of substitutions follows the chain as printed. Names and notes keep the numbering of the source.

B1: UBAC2, endogenous (natural protein, human (endogenous in HeLa, THP-1, HT-29), UniProt Q8NBM4 36-344, looked up)
chain: HCQKLFVYDLHAVKNDFQIWRLICGRIICLDLKDTFCSSLLIYNFRIFERRYGSRKFASFLLGSWVLSALFDFLLIEAMQYFFGITAASNLPSGFLAPVFALFVPFYCSIPRVQVAQILGPLSITNKTLIYILGLQLFTSGSYIWIVAISGLMSGLCYDSKMFQVHQVLCIPSWMAKFFSWTLEPIFSSSEPTSEARIGMGATLDIQRQQRMELLDRQLMFSQFAQGRRQRQQQGGMINWNRLFPPLRQRQNVNYQGGRQSEPAAPPLEVSEEQVARLMEMGFSRGDALEALRASNNDLNVATNFLLQH
notes: UBAC2 endogenous in human cell lines; also called ubiquitin-associated domain-containing protein 2; source: endogenous, lysates of HeLa cells, THP-1-derived macrophages and HT-29 cells
B2: UBAC2 wild type, transfected (cross-linking experiments) (natural protein, human, UniProt Q8NBM4 36-344, looked up)
chain: B1 chain
notes: UBAC2, human; also called WT UBAC2
B3: UBAC2 S223D, transfected (cross-linking experiments) (natural protein, human, UniProt Q8NBM4 36-344, looked up)
chain: B1 chain with S188D
notes: UBAC2, human; also called S223D mutant form of UBAC2

Experiments:
GABARAP = GABARAP (UniProt O95166); experiment: co-IP Flag-GABARAP with HA-UBAC2; conditions: reference: wild type; sites S223
[1] = target: the molecule itself; experiment: cross-linking; extracts of HeLa cells (also WT THP-1 macrophages and HT-29 cells) treated with TG or EBSS in the presence of Baf A1 (0.2 uM); 2 mM disuccinimidyl suberate (DSS), immunoblot for endogenous UBAC2
[2] = target: the molecule itself; experiment: cross-linking; 293T cells transfected with WT UBAC2 or S223 mutants, TG (1 uM, 1 h) or EBSS (3 h) with Baf A1 (0.2 uM), with scramble or MARK2 siRNA; lysates treated with 2 mM DSS, immunoblot

Molecule | stoichiometry N [2] | further results
UBAC2 (from UniProt Q8NBM4) S223A |  | binding against the reference (GABARAP): weaker
B1 |  | stoichiometry N [1]: 2
B2 | 2 | 
B3 | 2 | 
